B1: KR-024 (peptide)
peptide: Ac-SYSMEHFR[NMeW]GKPV-NH2
B2: KR-012 (peptide)
peptide: Ac-EHFRWGC-NH2
modifications: bridge N-7; not fully specified (bridges); printed as Cyclo(-Ac-Glu-His-Phe-Arg-Trp-Gly-Cys)-NH2
B3: KR-001 (peptide)
peptide: Ac-YSMEHFRWGKPV-NH2
B4: KR-011 (peptide)
peptide: {CH2CO}-EHFRWC-NH2
modifications: thioether N-6
SMILES: N=C(N)NCCC[C@@H]1NC(=O)[C@H](Cc2ccccc2)NC(=O)[C@H](Cc2c[nH]cn2)NC(=O)[C@H](CCC(=O)O)NC(=O)CSC[C@@H](C(N)=O)NC(=O)[C@H](Cc2c[nH]c3ccccc23)NC1=O
B5: KR-023 (peptide)
peptide: Ac-SYSMEHF[NMeR]WGKPV-NH2
B6: KR-040 (peptide)
peptide: Ac-[Nle]CH[dF]RWC-NH2
modifications: linker 2-7 via mXylylene
B7: KR-035 (peptide)
peptide: Ac-[Nle]EHFRWGK-NH2
SMILES: CCCC[C@H](NC(C)=O)C(=O)N[C@@H](CCC(=O)O)C(=O)N[C@@H](Cc1c[nH]cn1)C(=O)N[C@@H](Cc1ccccc1)C(=O)N[C@@H](CCCNC(=N)N)C(=O)N[C@@H](Cc1c[nH]c2ccccc12)C(=O)NCC(=O)N[C@@H](CCCCN)C(N)=O
B8: KR-069 (peptide)
peptide: Ac-[Nle][dLys(N3)]H[dF]RW[Pra]K-NH2
modifications: triazole 2-7; not fully specified; printed as Ac-Nle-[DLys(N3)-His-DPhe-Arg-Trp-Pra]-Lys-NH2
B9: KR-003 (peptide)
peptide: Ac-MEHFRWGKPV-NH2
B10: KR-025 (peptide)
peptide: Ac-SYSMEH[dNMeF]RWGKPV-NH2
B11: KR-022 (peptide)
peptide: Ac-SYSMEH[NMeF]RWGKPV-NH2
B12: KR-021 (peptide)
peptide: Ac-SYSME[NMeH]FRWGKPV-NH2
B13: KR-032 (peptide)
peptide: Ac-[Nle]CH[dF]RCW-NH2
modifications: linker 2-6 via mXylylene

Starred links: 1 amine or outer side, 2 acyl side, 3 side chain; linkers in the order of their positions; H or OH if unused. Positions of bridges follow the written chain, without caps; N, C: chain ends. Non-standard residues stand in square brackets, D forms with d. dLys(N3) = [N-]=[N+]=NCCCC[C@@H](N)C(=O)O; NMeW = CN[C@@H](Cc1c[nH]c2ccccc12)C(=O)O; mXylylene = c1cc(C[*:1])cc(C[*:2])c1; NMeH = CN[C@@H](Cc1c[nH]cn1)C(=O)O; NMeR = CN[C@@H](CCCNC(=N)N)C(=O)O; NMeF = CN[C@@H](Cc1ccccc1)C(=O)O; dNMeF = CN[C@H](Cc1ccccc1)C(=O)O; Nle = CCCC[C@H](N)C(=O)O; Pra = C#CC[C@H](N)C(=O)O

human recombinant MC1R (CHO-K1 stable cell line, GenScript), sequence (Q01726 whole entry): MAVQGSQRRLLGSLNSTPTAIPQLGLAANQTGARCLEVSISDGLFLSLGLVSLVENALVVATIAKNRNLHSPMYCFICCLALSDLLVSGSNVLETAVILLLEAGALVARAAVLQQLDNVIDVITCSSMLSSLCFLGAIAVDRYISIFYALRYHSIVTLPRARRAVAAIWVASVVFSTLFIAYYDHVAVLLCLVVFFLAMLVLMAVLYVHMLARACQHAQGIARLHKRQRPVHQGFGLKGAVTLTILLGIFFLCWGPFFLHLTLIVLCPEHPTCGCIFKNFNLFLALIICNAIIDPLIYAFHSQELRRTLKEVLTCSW

One assay addresses human recombinant MC1R (CHO-K1 stable cell line, GenScript) (human, UniProt Q01726 1-317). Kind of assay: cell-based or functional assay.
As to B1, the “MC1R IC50” value was determined as 0.88 nM.
In the case of B2, the “MC1R IC50” value was found to be 20 nM.
Take B3: the “MC1R IC50” value stood at 0.061 nM.
Still for that read-out and setting: next, B4: 128 nM.
On to B5, for which the “MC1R IC50” value worked out at 21.2 nM.
For the molecule B6, the “MC1R IC50” value turned out to be 0.124 nM.
As to B7, the “MC1R IC50” value worked out at 0.36 nM.
As to B8, the “MC1R IC50” value was determined as 16.5 nM.
Turning to B9, the “MC1R IC50” value came to 0.13 nM.
As for B10, the “MC1R IC50” value was 17.8 nM.
In the case of B11, the “MC1R IC50” value is over 200 nM.

The target of another assay is human recombinant MC3R (CHO-K1/Gα15 stable cell line, GenScript) (human, UniProt P41968 1-323). Kind of assay: cell-based or functional assay.
human recombinant MC3R (CHO-K1/Gα15 stable cell line, GenScript), sequence (P41968 whole entry): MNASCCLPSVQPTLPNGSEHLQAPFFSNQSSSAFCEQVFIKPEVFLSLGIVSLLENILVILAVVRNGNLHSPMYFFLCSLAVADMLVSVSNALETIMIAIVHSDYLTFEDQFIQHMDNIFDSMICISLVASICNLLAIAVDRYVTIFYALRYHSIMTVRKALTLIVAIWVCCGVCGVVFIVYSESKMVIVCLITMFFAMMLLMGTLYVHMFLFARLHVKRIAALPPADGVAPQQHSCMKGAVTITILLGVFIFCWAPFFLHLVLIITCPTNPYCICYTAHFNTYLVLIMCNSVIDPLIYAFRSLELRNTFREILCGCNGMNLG
Regarding B1, the “MC3R IC50” value came to 515 nM.
Turning to B2, the “MC3R IC50” value turned out to be 5570 nM.
Consider B3, for which the “MC3R IC50” value came out at 199 nM.
On to B4, for which the “MC3R IC50” value is over 50000 nM.
Turning to B5, the “MC3R IC50” value turned out to be 13400 nM.
Regarding B12, the “MC3R IC50” value was found to be 445 nM.
Regarding B7, the “MC3R IC50” value came out at 276 nM.
As to B9, the “MC3R IC50” value turned out to be 289 nM.
On the same count and under the same terms, next, B10: over 50000 nM.
For B11, the “MC3R IC50” value is over 50000 nM.
Regarding B13, the “MC3R IC50” value stood at 1330 nM.

The target of the next assay is human recombinant MC4R (CHO-K1/Gα15 stable cell line, GenScript) (human, UniProt P32245 1-332). Put plainly: cell-based or functional assay.
human recombinant MC4R (CHO-K1/Gα15 stable cell line, GenScript), sequence (P32245 whole entry): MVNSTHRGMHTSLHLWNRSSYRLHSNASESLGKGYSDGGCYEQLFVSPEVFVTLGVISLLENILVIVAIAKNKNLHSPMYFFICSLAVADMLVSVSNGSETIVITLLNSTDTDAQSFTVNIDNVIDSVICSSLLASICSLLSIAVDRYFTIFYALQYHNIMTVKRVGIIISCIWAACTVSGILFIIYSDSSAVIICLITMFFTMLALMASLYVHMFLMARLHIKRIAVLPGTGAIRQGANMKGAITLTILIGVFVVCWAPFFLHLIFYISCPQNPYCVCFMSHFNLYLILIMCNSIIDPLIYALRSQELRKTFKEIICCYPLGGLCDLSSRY
For the molecule B2, the “MC4R IC50” value amounted to 16 nM.
On to B3, for which the “MC4R IC50” value came out at 87.6 nM.
Turning to B4, the “MC4R IC50” value came out at 104 nM.
Consider B7, for which the “MC4R IC50” value was found to be 59.6 nM.
Same read-out and setting: next, B8: 30.9 nM; B9: 40.5 nM; B13: 194 nM.

A further assay deals with human recombinant MC5R (CHO-K1/Ga15 stable cell line, GenScript) (human, UniProt P33032 1-325). Put plainly: cell-based or functional assay.
human recombinant MC5R (CHO-K1/Ga15 stable cell line, GenScript), sequence (P33032 whole entry): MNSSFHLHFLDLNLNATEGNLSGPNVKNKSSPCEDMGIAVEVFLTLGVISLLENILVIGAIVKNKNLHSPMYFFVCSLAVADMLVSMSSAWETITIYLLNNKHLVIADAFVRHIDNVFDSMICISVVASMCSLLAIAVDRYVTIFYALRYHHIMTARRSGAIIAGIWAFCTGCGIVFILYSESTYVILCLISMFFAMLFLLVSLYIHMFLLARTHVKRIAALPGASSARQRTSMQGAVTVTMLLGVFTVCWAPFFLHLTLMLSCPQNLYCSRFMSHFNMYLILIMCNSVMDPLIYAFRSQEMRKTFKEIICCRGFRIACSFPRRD
With B3, the “MC5R IC50” value came out at 84.4 nM.
The same measure, in the same setting: next, B5: 4540 nM; B12: 225 nM; B6: 257 nM.
For B7, the “MC5R IC50” value came to 404 nM.
Take B8: the “MC5R IC50” value came out at 161 nM.
For the molecule B9, the “MC5R IC50” value is 315 nM.
In the case of B10, the “MC5R IC50” value amounted to 1080 nM.
As to B11, the “MC5R IC50” value turned out to be 698 nM.
As for B13, the “MC5R IC50” value was found to be 489 nM.

These data come from patent US20260152527A1 (SIGHTSTREAM BIOTHERAPEUTICS, published 2026).
